In US10047131B2, “Peptides and combination of peptides for use in immunotherapy against ovarian cancer and other cancers” (immatics biotechnologies GmbH, priority 2015, dated 2018):

target: HLA-A*02:01 (Homo sapiens, UniProt P04439, D140Y/D185E/D98H/E176V/E277Q/G131W/G231S/I119V/I121R/I166T/I218V/L300P/L318F/N151K/N90K/P208A/P217A/Q86G/Q94H/R138H/R169H/T345S); test: MHC binding assay (UV-ligand exchange, ELISA of exchange yield); conditions: binding to HLA-A*02:01, UV-ligand exchange
Outline: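 Peptide–MHC complexes made by UV-ligand exchange, where a UV-cleavable peptide is replaced by the test peptide. Exchange yield measured by ELISA: complexes diluted 100-fold on streptavidin-coated plates, stabilized complexes detected with HRP anti-β2m, TMB read at 450 nm.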

Peptide exchange (MHC class I binding score, peptide exchange yield)	Substance
“+” (≥10% = +)	230 (ILVDWLVEV; listed as Homo sapiens) [compound 230]
“++” (≥20% = ++)	232 (ALLEAQDVELYL; listed as Homo sapiens) [compound 232]
“++” (≥20% = ++)	234 (ALMEDTGRQML; listed as Homo sapiens) [compound 234]
“++++” (≥75% = ++++)	235 (YLNDLHEVLL; listed as Homo sapiens) [compound 235]
“+++” (≥50 = +++)	239 (AAFAGKLLSV; listed as Homo sapiens) [compound 239]
“+++” (≥50 = +++)	240 (ILLEQAFYL; listed as Homo sapiens) [compound 240]
“+++” (≥50 = +++)	244 (SLFGGTEITI; listed as Homo sapiens) [compound 244]
“+++” (≥50 = +++)	246 (LLWEVVSQL; listed as Homo sapiens) [compound 246]
“+++” (≥50 = +++)	247 (VLLPNDLLEKV; listed as Homo sapiens) [compound 247]
“+++” (≥50 = +++)	248 (FLFPNQYVDV; listed as Homo sapiens) [compound 248]
“++” (≥20% = ++)	251 (ALYTGFSILV; listed as Homo sapiens) [compound 251]
“+++” (≥50 = +++)	255 (VLASYNLTV; listed as Homo sapiens) [compound 255]
“+++” (≥50 = +++)	256 (FLPPEHTIVYI; listed as Homo sapiens) [compound 256]
“++” (≥20% = ++)	261 (YVLEFLEEI; listed as Homo sapiens) [compound 261]
“+++” (≥50 = +++)	262 (LLWGDLIWL; listed as Homo sapiens) [compound 262]
“+++” (≥50 = +++)	263 (LLVSNLDFGV; listed as Homo sapiens) [compound 263]
“+++” (≥50 = +++)	264 (SLQEQLHSV; listed as Homo sapiens) [compound 264]
“+++” (≥50 = +++)	272 (ALGNTVPAV; listed as Homo sapiens) [compound 272]
“+++” (≥50 = +++)	276 (ALFTFSPLTV; listed as Homo sapiens) [compound 276]
“++” (≥20% = ++)	277 (LLPPLESLATV; listed as Homo sapiens) [compound 277]
“++” (≥20% = ++)	278 (QLLDVVLTI; listed as Homo sapiens) [compound 278]
“++” (≥20% = ++)	279 (ALWGGTQPLL; listed as Homo sapiens) [compound 279]
“+++” (≥50 = +++)	281 (ILRESTEEL; listed as Homo sapiens) [compound 281]
“+++” (≥50 = +++)	282 (LLADVVPTT; listed as Homo sapiens) [compound 282]
“+++” (≥50 = +++)	284 (ILLSQTTGV; listed as Homo sapiens) [compound 284]
“+++” (≥50 = +++)	285 (QLLHVGVTV; listed as Homo sapiens) [compound 285]
“+++” (≥50 = +++)	287 (FLNEFFLNV; listed as Homo sapiens) [compound 287]
“+++” (≥50 = +++)	296 (FMEGAIIYV; listed as Homo sapiens) [compound 296]
“+++” (≥50 = +++)	300 (ALLGQTFSL; listed as Homo sapiens) [compound 300]
“+++” (≥50 = +++)	301 (FLVEDLVDSL; listed as Homo sapiens) [compound 301]

More lines, now with the values behind:

Substance	Peptide exchange (MHC class I binding score, peptide exchange yield)
229 (RLPGPLGTV; listed as Homo sapiens) [compound 229]	“++” (≥20% = ++)
231 (FLSPQQPPLLL; listed as Homo sapiens) [compound 231]	“++” (≥20% = ++)
233 (VLSETLYEL; listed as Homo sapiens) [compound 233]	“++” (≥20% = ++)
236 (GLLEAKVSL; listed as Homo sapiens) [compound 236]	“+++” (≥50 = +++)
237 (ALLEASGTLLL; listed as Homo sapiens) [compound 237]	“++++” (≥75% = ++++)
238 (YLISFQTHI; listed as Homo sapiens) [compound 238]	“+++” (≥50 = +++)
241 (SLVEVNPAYSV; listed as Homo sapiens) [compound 241]	“+++” (≥50 = +++)
242 (AIAYILQGV; listed as Homo sapiens) [compound 242]	“++” (≥20% = ++)
243 (LLLNELPSV; listed as Homo sapiens) [compound 243]	“+++” (≥50 = +++)
245 (SMIDDLLGV; listed as Homo sapiens) [compound 245]	“+++” (≥50 = +++)
249 (LLDGFLVNV; listed as Homo sapiens) [compound 249]	“+++” (≥50 = +++)
250 (ALSEEGLLVYL; listed as Homo sapiens) [compound 250]	“+++” (≥50 = +++)
252 (LLIGTDVSL; listed as Homo sapiens) [compound 252]	“+++” (≥50 = +++)
253 (GLDAATATV; listed as Homo sapiens) [compound 253]	“++” (≥20% = ++)
254 (TLLAFIMEL; listed as Homo sapiens) [compound 254]	“+++” (≥50 = +++)
257 (SIFSAFLSV; listed as Homo sapiens) [compound 257]	“+++” (≥50 = +++)
258 (ELAERVPAI; listed as Homo sapiens) [compound 258]	“++” (≥20% = ++)
265 (LLFGGTKTV; listed as Homo sapiens) [compound 265]	“++” (≥20% = ++)
266 (KITDTLIHL; listed as Homo sapiens) [compound 266]	“+++” (≥50 = +++)

Substance	Peptide exchange (MHC class I binding score, peptide exchange yield)
267 (ALQDFLLSV; listed as Homo sapiens) [compound 267]	“+++” (≥50 = +++)
269 (RVLEVGALQAV; listed as Homo sapiens) [compound 269]	“++” (≥20% = ++)
270 (LLLDEEGTFSL; listed as Homo sapiens) [compound 270]	“++” (≥20% = ++)
271 (LVYPLELYPA; listed as Homo sapiens) [compound 271]	“+++” (≥50 = +++)
273 (NLFQSVREV; listed as Homo sapiens) [compound 273]	“++” (≥20% = ++)
274 (SLLFSLFEA; listed as Homo sapiens) [compound 274]	“++” (≥20% = ++)
275 (YLVYILNEL; listed as Homo sapiens) [compound 275]	“++” (≥20% = ++)
280 (VLPDPEVLEAV; listed as Homo sapiens) [compound 280]	“+++” (≥50 = +++)
283 (ALYIGDGYVIHLA; listed as Homo sapiens) [compound 283]	“+++” (≥50 = +++)
286 (YLFPGIPEL; listed as Homo sapiens) [compound 286]	“+++” (≥50 = +++)
288 (NLINEINGV; listed as Homo sapiens) [compound 288]	“+++” (≥50 = +++)
289 (VLLEIEDLQV; listed as Homo sapiens) [compound 289]	“++++” (≥75% = ++++)
295 (VLDRESPNV; listed as Homo sapiens) [compound 295]	“+++” (≥50 = +++)
297 (VLADIELAQA; listed as Homo sapiens) [compound 297]	“+++” (≥50 = +++)
298 (VMITKLVEV; listed as Homo sapiens) [compound 298]	“+++” (≥50 = +++)
299 (YLLETSGNL; listed as Homo sapiens) [compound 299]	“+++” (≥50 = +++)
302 (ALLQEGEVYSA; listed as Homo sapiens) [compound 302]	“+++” (≥50 = +++)
303 (AILPQLFMV; listed as Homo sapiens) [compound 303]	“++++” (≥75% = ++++)
